Experimental data from paper PMC6080939 (The Journal of Cell Biology, 2018).
Like-named read-outs stand apart in the source and are kept apart here.

What was measured:
Test in all cases: AFM single-cell force spectroscopy
[1] = target: integrin α4β7 (human (endogenous in RPMI 8866–CXCR3)) (UniProt P13612)
[2] = target: integrin α4β7 (human (endogenous in RPMI 8866–CXCR3)) (UniProt P13612); remark: listed apart in the source
[3] = target: integrin α4β7 (human (endogenous in RPMI 8866–CXCR3)) (UniProt P13612); remark: listed apart in the source
[4] = target: integrin α4β7 (human (endogenous in RPMI 8866–CXCR3)) (UniProt P13612); remark: listed apart in the source
[5] = target: integrin α4β7 (human (endogenous in RPMI 8866–CXCR3)) (UniProt P13612); remark: listed apart in the source
[6] = target: integrin α4β7 (human (endogenous in RPMI 8866–CXCR3)) (UniProt P13612); remark: listed apart in the source
integrin α4β7 [7] = target: T1, integrin α4β7 (human (endogenous in RPMI 8866–CXCR3), UniProt P13612 34-1032; P26010 20-798)
T1 sequence (P13612 34-1032, chain 1 of 2): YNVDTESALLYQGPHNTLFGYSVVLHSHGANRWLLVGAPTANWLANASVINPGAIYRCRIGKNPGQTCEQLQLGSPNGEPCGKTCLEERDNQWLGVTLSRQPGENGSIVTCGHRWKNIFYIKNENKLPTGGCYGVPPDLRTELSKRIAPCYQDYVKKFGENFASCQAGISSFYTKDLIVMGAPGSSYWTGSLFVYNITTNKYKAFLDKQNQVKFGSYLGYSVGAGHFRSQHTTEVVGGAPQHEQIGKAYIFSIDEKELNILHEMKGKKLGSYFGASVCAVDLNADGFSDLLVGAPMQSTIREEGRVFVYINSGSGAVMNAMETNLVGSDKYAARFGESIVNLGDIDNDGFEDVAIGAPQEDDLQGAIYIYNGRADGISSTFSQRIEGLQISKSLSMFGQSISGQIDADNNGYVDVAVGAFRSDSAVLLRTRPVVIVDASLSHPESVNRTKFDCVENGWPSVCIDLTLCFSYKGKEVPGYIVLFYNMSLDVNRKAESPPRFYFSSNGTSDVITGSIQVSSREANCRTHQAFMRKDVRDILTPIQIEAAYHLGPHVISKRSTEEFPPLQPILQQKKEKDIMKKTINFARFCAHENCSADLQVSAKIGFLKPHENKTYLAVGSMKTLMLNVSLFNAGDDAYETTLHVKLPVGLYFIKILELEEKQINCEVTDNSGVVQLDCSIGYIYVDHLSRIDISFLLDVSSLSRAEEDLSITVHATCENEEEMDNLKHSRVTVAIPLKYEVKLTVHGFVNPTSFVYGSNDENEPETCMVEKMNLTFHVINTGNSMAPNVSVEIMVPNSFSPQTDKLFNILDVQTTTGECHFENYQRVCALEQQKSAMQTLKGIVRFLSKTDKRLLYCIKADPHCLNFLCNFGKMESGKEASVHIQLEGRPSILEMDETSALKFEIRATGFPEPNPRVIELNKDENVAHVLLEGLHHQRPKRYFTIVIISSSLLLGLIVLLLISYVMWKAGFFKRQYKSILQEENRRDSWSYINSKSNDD
T1 sequence (P26010 20-798, chain 2 of 2): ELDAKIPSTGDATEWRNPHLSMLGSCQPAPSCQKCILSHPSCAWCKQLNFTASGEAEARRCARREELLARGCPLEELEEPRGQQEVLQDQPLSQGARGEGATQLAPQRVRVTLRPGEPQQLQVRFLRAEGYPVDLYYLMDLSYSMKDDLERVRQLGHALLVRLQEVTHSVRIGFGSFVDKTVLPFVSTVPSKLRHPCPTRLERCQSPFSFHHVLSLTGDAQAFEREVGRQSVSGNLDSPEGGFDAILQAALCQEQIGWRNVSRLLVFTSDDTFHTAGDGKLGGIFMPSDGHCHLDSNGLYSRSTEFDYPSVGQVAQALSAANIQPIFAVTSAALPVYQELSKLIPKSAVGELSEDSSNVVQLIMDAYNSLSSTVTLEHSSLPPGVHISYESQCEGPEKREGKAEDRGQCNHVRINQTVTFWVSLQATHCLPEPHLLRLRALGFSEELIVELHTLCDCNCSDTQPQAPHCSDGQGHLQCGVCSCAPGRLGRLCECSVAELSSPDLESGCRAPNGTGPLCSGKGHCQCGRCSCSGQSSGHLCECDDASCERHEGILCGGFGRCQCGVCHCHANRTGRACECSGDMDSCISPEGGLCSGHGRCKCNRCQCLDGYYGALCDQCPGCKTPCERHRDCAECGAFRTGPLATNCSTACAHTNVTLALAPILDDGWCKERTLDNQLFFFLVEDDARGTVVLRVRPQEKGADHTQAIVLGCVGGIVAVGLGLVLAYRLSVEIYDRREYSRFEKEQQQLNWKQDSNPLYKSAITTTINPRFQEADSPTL

integrin α4β7 [8] = target: T1, integrin α4β7; remark: listed apart in the source
integrin α4β7 [9] = target: T1, integrin α4β7; remark: listed apart in the source

integrin α4β7 (human (endogenous in RPMI 8866–CXCR3)), sequence (P13612 34-1032, chain 1 of 2): as the sequence (P13612 34-1032, chain 1 of 2) above
integrin α4β7 (human (endogenous in RPMI 8866–CXCR3)), sequence (P26010 20-798, chain 2 of 2, further chain): as the sequence (P26010 20-798, chain 2 of 2) above

| single-bond unbinding force [1] | koff [2] | adhesion frequency [3] | koff [3] | single-bond unbinding force [3] | adhesion frequency [4] | adhesion frequency [5] | koff [6] | koff (integrin α4β7 [7]) | koff (integrin α4β7 [8]) | koff (integrin α4β7 [9]) | Molecule |
| --- | --- | --- | --- | --- | --- | --- | --- | --- | --- | --- | --- |
| 32 pN | 1.17 s⁻¹ | 31% | 1.03 s⁻¹ | 35 to 80 pN | 55% | 25% | 0.4 s⁻¹ | – | – | – | MAdCAM-1 (adsorbed on the surface for AFM single-cell force spectroscopy) (from UniProt Q13477 19-382) (ligand) |
| – | – | – | – | – | – | – | – | 1.58 s⁻¹ | 1.75 s⁻¹ | 0.83 s⁻¹ | VCAM-1 (adsorbed on the surface for AFM single-cell force spectroscopy) (ligand, human, UniProt P19320 25-698, looked up) FKIETTPESRYLAQIGDSVSLTCSTTGCESPFFSWRTQIDSPLNGKVTNEGTTSTLTMNPVSFGNEHSYLCTATCESRKLEKGIQVEIYSFPKDPEIHLSGPLEAGKPITVKCSVADVYPFDRLEIDLLKGDHLMKSQEFLEDADRKSLETKSLEVTFTPVIEDIGKVLVCRAKLHIDEMDSVPTVRQAVKELQVYISPKNTVISVNPSTKLQEGGSVTMTCSSEGLPAPEIFWSKKLDNGNLQHLSGNATLTLIAMRMEDSGIYVCEGVNLIGKNRKEVELIVQEKPFTVEISPGPRIAAQIGDSVMLTCSVMGCESPSFSWRTQIDSPLSGKVRSEGTNSTLTLSPVSFENEHSYLCTVTCGHKKLEKGIQVELYSFPRDPEIEMSGGLVNGSSVTVSCKVPSVYPLDRLEIELLKGETILENIEFLEDTDMKSLENKSLEMTFIPTIEDTGKALVCQAKLHIDDMEFEPKQRQSTQTLYVNVAPRDTTVLVSPSSILEEGSSVNMTCLSQGFPAPKILWSRQLPNGELQPLSENATLTLISTKMEDSGVYLCEGINQAGRSRKEVELIIQVTPKDIKLTAFPSESVKEGDTVIISCTCGNVPETWIILKKKAETGDTVLKSIDGAYTIRKAQLKDAGVYECESKNKVGSQLRSLTLDVQGRENNKDYFSPE |
